Test system: K4 kissing-loop RNA reporter
Assay: apparent KD of K4 kissing-loop reporter; higher = weaker reporter binding
Conditions: Eterna round: R107; input ligand: FMN 200 uM
Method: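 RNA-MaP round R107: designed RNA switches with theophylline, tryptophan, arginine or FMN aptamers are transcribed on-chip within common flanks. They are titrated with a labelled K4 kissing-loop RNA reporter in RNA-MaP buffer (100 mM Tris pH 7.5, 80 mM KCl, 4 mM MgCl2), without ligand or with the indicated ligand. Median apparent KD per design.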
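Note: bound reporter read as fluorescence of individual clusters on recovered sequencing chips by microscopy, with normalized cluster intensities fitted with a binding model.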

Sequence	apparent KD of K4 kissing-loop reporter [µM]
UAGUGAUGCUAUGUUAGGUUUUUUAGGGAAGGAGCGCCAAAGAAGGCAGGUAGGUCGCCCUAUAUUCCCAGUGAUGUUGGGUAUU [Skye_Ex_AA]	0.0648
AUUUUUUUGUCAGGAUAUUAGUGUGCGUUUGGUUUGUUAGUGAUGUUGAUAUUUUGUUUAUGUAUUUAAGAAGGGAUUUAGCGGU [aaeatemullin]	0.534
GGAUUCACCAGUGAUGUUGGAGAAAACUCGAAGGAUAUGACGAAAGUCAGAAGGUCGUAGACUGGACAAAGUCCGGUCGGAUCCA [KL-SSFMN-A22]	0.419
CGAAGAGAGUGAUGUUCUCUAGGCAAAAGAAAGGAUAUAAUGUUUGUUAGAAGGUUCGGAAAAUGGAACGUCGGCCCGUACAACC [theeternabot_exclusion_KL_FMN_A_18]	0.151
CUUCGAUUAACAGAUACCAGUCACUUUGGAGCCACACACAAGUGAGUGAUGUUCACUUGUGACCCUUGGCAGCUGUUAGUCGAAG [Theo B Ex t1]	0.0928
UUUUUGGAGAAUUAUAGUGAUGUUAUGAAGGAGGAUAUCUGGAGAUGGAGAAGGCCUAGUGGCUCAGCCCUCGAGGGUGGGUGGG [ExFMNA.aC]	0.646
AGUGAUAUAUGAGGAUAUGGGUUAAUUAGUGAGUGAUUUUUAGUGUUGUUUGAUUAGUGAUGUUAUUUAGAAGGCGUGAGUGAUG [mvvmjmullin]	0.123
CGCAGUGAUGUUGCGAACAUAAUGCAUUCAGAGGAUAUUCGUUUGGGAAGAAGGCUGAAUCGUUUUUCGAGUGAUGUUUGAGGAA [Same State FMN A GF 18]	0.106
AUUUGUUUAUGCGAUACCAGACUAAGCAGUGAUGUUGCUUUUAUUUUUGAAUUUUAAAUAGUCCCUUGGCAGCGCUAUGUCUGUA [#06 K4 Theophylline B Same State]	0.127
UAAGCUCUGACGGCCGCCACUGCACGUGAAUCAGUGGUGGCUAACAUGAGUGAUGUUCAUGUAAGCAGGACCGGGUCAGAGCUAA [KL-XTryp-B14 #analogue]	0.112
CCAUCGCUAUUCGAUACCAGUCAGGAGGUCUGUGACCUCCUAAUGGAGUGAUGUUCCUUAGACCCUUGGCAGCGAAUAGUGAUGG [#02 K4 Theophylline B Same State]	0.203
UCGAAGGAUGGAAGGAGCGCUCGUCAGCCCUGCGAGUGAUGUUCGUGGGUAAAUAGUCGCGAGCAGGUAGGUCGCCAUCUUGAGC [Ritera]	0.128
UCUUAACUAAAAUAAUGGGAUACCAGUGAUACCAGCCAUAUGCAGGGCCCUUGGCAGCACCCUUGGCAGCCUCGAGUGAUGUUCG [KL-SSTheo-A7 #DoubleAptamer]	0.283
GCCGUACGCAUGGAUACCAGAUCUAGACGCUUAGUGAUGUUAAGUAAUCUGGUUAGACCGAUCCCUUGGCAGCCAUGCGUACGGC	0.27
GCCGUACGCAUGGAUACCAGACAACCAUUCUAAAUUUUGUGUCCGGUAGUGAUGUUACCUGUCCCUUGGCAGCCAUGCGUACGGC	0.306
GAACGGCGGGCGGCCGCCACUGGUAUACGAGUGAUGUUCGGAUAUACGUGAUGUAAGGUAAUUAUCAGGACCGGGUCAGAGCCGG [#16 K4 Tryptophan B Same State]	0.394
UGUCAUUGGUCGGCCGCCACUAGGACCGGGUAUAACCUAGUGAUGUUAGUAAAUACGGCCGCCACUAGGACCGGGACCGAUGACU [KL-SSTryp-B18 #DoubleAptamer]	0.415
AAGUCAUAGGCAGGAUAUGCAUUGUAGUAAGGCAAUAUAUACGUAUAGAGUGAUGUUUUGUACCAGGCAGAAGGGCUACAUCAGU [FMN B Excl V11 (+G)]	0.826
GCUAUGGUAGGAAGGAGCGCGGACGAAAUAUAUCGAGUGAUGUUCGAAUAAUUAAAUAAAACGCAGGUAGGUCGCCUACUAUAGC [Arginine B K4 25]	0.116
AGACUACCACACUGUCAAUAGACAGUGGACUAGGAUAUGCUGAUAAGCAGAAGGAGUGAUGUUCCUAGGUAGUCAAUAAAAUAAU [FmnAX 13 G28]	0.357
UUUCUACCGGGAAGGAGCGUGAAUGAUAAUGGAUAUAGUGAUGUUAUAUAUACGAACGAAUCGCAGGUAGGUCGCCCGGAUCACU [SSArgB.U]	0.655
GCCGUAGAUGGAAGGAGCGUGGUGGACUCGUGAAGUGAUGUUUCAAGUCGUUAUGCCCAACCACAGGUAGGUCGCCAUCUACGGC	0.277

Sequence	apparent KD of K4 kissing-loop reporter [µM]
UGCAGUGAUGUUGCUAUUUGUCUUGAUUAACGAGGACCGGUACGGCCGCCACUCGAUUUCUCUCUAAUCGAGUAUGUUGUUUAGU [#19 K4 Tryptophan A Exclusion]	0.153
UAAUUGCAGUGAUGUUGCAAAUGUCCUGACUAGGAUAUCAGGAAACUGAGAAGGAGUCCCUUCUAUUGCAACAAGAAGGAGGAUA [KL-SSFMN-A14]	0.312
AAUAUAAAGCAGUGAUGUUGCUUAUGAGAAGGAGCGCACGAAAGUGCAGGUAGGUCGCUCAGCCAAGUGGACGAAAACGUCCACA [whbob_SS_Arginine_A_sa106]	0.0821
GGAUCCACCAGUGAUGUUGGAGAAAACUCAAAGGAUAUGACGAAAGUCAGAAGGUUGUAGACUGGACAAAGUCCGGUCGGAUCCA [FmnA 19 A30+U56]	0.45
UUGAGCCGGACGUAAGUCCGGCUCUGCGAGCGAGGACCGGUACGGCCGCCACUCGGUGCAGUGAUGUUGCAUGGCCGCAAGGCCG [#2 Exclusion - Tryptophan A Attempt #5 (HarryS)]	0.325
UGCACGGGCUCGGCCGCCACUCCAGCGGGUCGCAAGGUCCGCUACUGAGUGAUGUUCGGUUGGAGGAGGACCGGGAGCCCGUGCG [#2 Exclusion - Tryptophan B Attempt #31 (HarryS)]	0.146
AUCUUGUUUGGAGGAUAUUCUUUAUUUGACAUAACCUUCUAUAAGGUGCAGUGAUGUUGCAAUAUAGGAGAAGGUCGAGUGAGAU [Exclusion FMN B GF 18]	0.19
AGGGUUUAACACGAUACCAGCCUGGAGGCCAGUGAUGUUGGCCGAUUUGAACAGAAUUAAGGCCCUUGGCAGCGUCUUUAAAACC [Biarat]	0.143
GAGUUUCGUAAAGGAUAUUCUAGCUAAAGCCAUUAGUGAUGUUGAUGUACGGACGGAAGCCUGGCAGAAGAAGGUUAACAGGAUU [theeternabot_sameState_KL_FMN_B_24]	0.708
AGUGAUGUGGGAAGGAGCGGUAUAAGAAUUCAGUGAUGUUGAAGUGUUGCAGAAAUAAAAGGCCAGGUAGGUCGCCUAGAUGUUA [KL-XARG B29]	0.347
GGGCAUCUGGCUGAUACCAGUGAUAAAGGGUAAGAGACAGGGAGUGAUGUUCCCUUUAGCCACCCUUGGCAGCAGUUUAAGUUUG [Exclusion Theophylline B GF 17]	0.0835
GUCUCAAAAGAGGCAAGCACUCACGAGGACAAGGAUAUCAUAUCAAUGAGAAGGUGUCCUCGUCCUCAGUGAUGUUGAGGAGUGC [Omei KL FMN A SS E v4]	0.41
AAAAUAAUCCAGUGAUGUUGGUUUCCAGAUACCAGCGACGAAAGUCGCCCUUGGCAGCUGUGGACGUACAAAAUAAGUACGUCCU	0.318
AGCUCAGAGUGACUCGAUAAGAGUCACAAACGAGGACCGGUACGGCCGCCACUCGAAAUAACGAGAGUGAUGUUCUCGCUGGGCA [FiskerMod 1 - Jieux - Same State Tryptophan A]	0.829
AGUUCUUGCCGAAGGAGCGAGGCAGAGUGAUGUUCUGCAGGAGGUCGAAAGACCUCCCUGCCUCAGGUAGGUCGCGGCAUGAACA [Omei KL Arginine B Exc A v1]	0.587
UUAUGUUUAGUUCACCCAGUGAUGUUGGAAGGAGCGUGCGAAAGCACAGGUAGGUCGCCAACCUUAAAGUGUCUUGAUUAUCUAA [JR_Nu_ExcArginiA_Sub029]	0.4
CGCAGUGAUGUUGCUAUUAUUCUUGGUUAACGAGGACCGGUACGGCCGCCACUCGGUUUCUAUCUAAUCCAGUGUUUUUUUGAGU [#24 K4 Tryptophan A Exclusion]	0.425
ACCAUCAAAGAUGGCCAGGACUCAACUGAUACCAGAGUGAAAACACUCCCUUGGCAGCAGGUGAGUGAUGUUCACGAGUCCUGGA [Omel KL Theo A SS B v7]	0.117
GUCAGACCGGGACUCCAGUGAUGUUGGAGGCAGGAUAUCCAGUCGAGGAGAAGGGCCAGGGAUAUCGAGCUGCUCGGUUUGUAGU [Xexezaes]	0.0724
CCUGAUCCUAGUGAUGUUAGGUCCAACGGCCGAGGACCGGUACGGCCGCCACUCGUCAAUUGGAAACAGCCCACGGGCACCGGGU [theeternabot_sameState_KL_Trp_A_19]	0.825
AUUUUAUUAACUGAUACCAGACUUAAUGAAUUGUAAAUUACUAGUGAUGUUAGUGAUUCUGUCCCUUGGCAGCAGUAUUUAUUAA [JR_ExcTheophyB_Sub012]	0.129

Same assay, conditions: Eterna round: R107; input ligand: arginine 13.2 mM

Sequence	apparent KD of K4 kissing-loop reporter [µM]
UAGUGAUGCUAUGUUAGGUUUUUUAGGGAAGGAGCGCCAAAGAAGGCAGGUAGGUCGCCCUAUAUUCCCAGUGAUGUUGGGUAUU [Skye_Ex_AA]	0.0506
AUUUUUUUGUCAGGAUAUUAGUGUGCGUUUGGUUUGUUAGUGAUGUUGAUAUUUUGUUUAUGUAUUUAAGAAGGGAUUUAGCGGU [aaeatemullin]	0.436
GGAUUCACCAGUGAUGUUGGAGAAAACUCGAAGGAUAUGACGAAAGUCAGAAGGUCGUAGACUGGACAAAGUCCGGUCGGAUCCA [KL-SSFMN-A22]	0.25
CGAAGAGAGUGAUGUUCUCUAGGCAAAAGAAAGGAUAUAAUGUUUGUUAGAAGGUUCGGAAAAUGGAACGUCGGCCCGUACAACC [theeternabot_exclusion_KL_FMN_A_18]	0.129
CUUCGAUUAACAGAUACCAGUCACUUUGGAGCCACACACAAGUGAGUGAUGUUCACUUGUGACCCUUGGCAGCUGUUAGUCGAAG [Theo B Ex t1]	0.0754
UUUUUGGAGAAUUAUAGUGAUGUUAUGAAGGAGGAUAUCUGGAGAUGGAGAAGGCCUAGUGGCUCAGCCCUCGAGGGUGGGUGGG [ExFMNA.aC]	0.626
AGUGAUAUAUGAGGAUAUGGGUUAAUUAGUGAGUGAUUUUUAGUGUUGUUUGAUUAGUGAUGUUAUUUAGAAGGCGUGAGUGAUG [mvvmjmullin]	0.106
CGCAGUGAUGUUGCGAACAUAAUGCAUUCAGAGGAUAUUCGUUUGGGAAGAAGGCUGAAUCGUUUUUCGAGUGAUGUUUGAGGAA [Same State FMN A GF 18]	0.0882
AUUUGUUUAUGCGAUACCAGACUAAGCAGUGAUGUUGCUUUUAUUUUUGAAUUUUAAAUAGUCCCUUGGCAGCGCUAUGUCUGUA [#06 K4 Theophylline B Same State]	0.2
UAAGCUCUGACGGCCGCCACUGCACGUGAAUCAGUGGUGGCUAACAUGAGUGAUGUUCAUGUAAGCAGGACCGGGUCAGAGCUAA [KL-XTryp-B14 #analogue]	0.0897

From the supplement of paper PMC9170038
